How the values were obtained:
[1] = molecular target: mACE 1-357 ACE2-Cherry hybrid (mouse | human) (UniProt Q8R0I0)
[2] = molecular target: Pus8AA+LMY➔A-ACE2-Cherry (human) (UniProt Q9BYF1)

## OM.BA.1-RBD-β2AR-GFP (from UniProt P0DTC2 333-529) (domain or fragment)
[1]
  loss of ACE2 fluorescence, DPF assay: 24.8%
[2]
  reduction of Pus8AA +LMY➔A-Cherry fluorescence, DPF assay: 17.2%

Source: publication doi:10.1101/2024.03.07.583884
